Publication PMC6147784, “Molecular mechanism of the Escherichia coli AhpC in the function of a chaperone under heat-shock conditions” (Scientific Reports, 2018)

Key:
[1] = target: P0AE08; assay: SEC; 10 µM reduced EcAhpC (pre-reduced with 20 mM DTT, desalted) incubated at 53 °C for 60 min in 50 mM phosphate pH 7.0 with 1 mM TCEP, centrifuged; Superdex 200 10/300 GL; to HMW oligomers
[2] = target: P0AE08; assay: SEC; 10 µM oxidized EcAhpC incubated at 48 °C for 60 min in 50 mM phosphate pH 7.0, cooled to room temperature, centrifuged; Superdex 200 10/300 GL in 50 mM Tris pH 7; dimers to HMW oligomers
[3] = target: P0AE08; assay: SEC; 10 µM protein (oxidized form) incubated at 53 °C for 60 min in 50 mM phosphate pH 7.0, cooled to room temperature, centrifuged; Superdex 200 10/300 GL in 50 mM Tris pH 7; dimers to HMW oligomers
[4] = target: P0AE08; assay: SEC; 10 µM oxidized EcAhpC incubated at 50 °C for 60 min in 50 mM phosphate pH 7.0, cooled to room temperature, centrifuged; Superdex 200 10/300 GL in 50 mM Tris pH 7; dimers to HMW oligomers
[5] = target: the molecule itself; assay: dynamic light scattering; 1 mg/ml (50 µM) reduced EcAhpC (5 mM DTT) in 50 mM phosphate pH 7.0, equilibrated 10 min at 25 °C
[6] = target: the molecule itself; assay: SEC; 10 µM protein (oxidized form) incubated at 25 °C for 60 min in 50 mM phosphate pH 7.0, centrifuged; Superdex 200 10/300 GL in 50 mM Tris pH 7 at room temperature; mass estimated from standards

B1: Escherichia coli alkyl hydroperoxide reductase subunit C (EcAhpC), His-tagged recombinant wild type (protein)
chain: MSLINTKIKPFKNQAFKNGEFIEITEKDTEGRWSVFFFYPADFTFVCPTELGDVADHYEELQKLGVDVYAVSTDTHFTHKAWHSSSETIAKIKYAMIGDPTGALTRNFDNMREDEGLADRATFVVDPQGIIQAIEVTAEGIGRDASDLLRKIKAAQYVASHPGEVCPAKWKEGEATLAPSLDLVGKI
Question: Which results are given for B1?
Answer: peak ratio (8 ml HMW peak to 16.5 ml peak) [1]: about 10:1; peak ratio (8.0 ml HMW peak to 15.5 ml dimer peak) [2]: 0.02:1; peak ratio (8.0 ml HMW peak to 15.5 ml dimer peak) [3]: 0.9:1; peak ratio (8.0 ml HMW peak to 15.5 ml dimer peak) [4]: 0.2:1

B2: Escherichia coli alkyl hydroperoxide reductase subunit C (EcAhpC), His-tagged recombinant wild type (enzyme, UniProt P0AE08 1-187, looked up)
chain: B1 chain
modifications: disulfide bonded (referred as oxidized form) as purified; reduced with DTT (kept with TCEP or DTT) in the assays marked as reduced
notes: Alkyl hydroperoxide reductase subunit C (AhpC) of Escherichia coli, the entire enzyme; the C-terminal extension is printed as aa 173-187; The same construct was used as the oxidized (intermolecular disulphide) and as the reduced form; the assay's format tells which; also called WT EcAhpC; oxidized EcAhpC; source: E. coli, purified (Ni2+-NTA, gel filtration on Superdex 75)
Question: What does the source list for B2?
Answer: stoichiometry N [5]: 10; stoichiometry N [6]: 2
